Patent US12410253B2, “Compositions comprising anti-NRP2 antibodies” (aTyr Pharma, Inc., priority 2019, dated 2025)
Entries after “also recorded” stand apart in the source; their conditions may differ.

T1: Human NRP2 (aa23-855) (Homo sapiens, UniProt O60462)
T1 construct: Human NRP2 (aa23-855)
T1 sequence (O60462 23-855 isoform O60462-3): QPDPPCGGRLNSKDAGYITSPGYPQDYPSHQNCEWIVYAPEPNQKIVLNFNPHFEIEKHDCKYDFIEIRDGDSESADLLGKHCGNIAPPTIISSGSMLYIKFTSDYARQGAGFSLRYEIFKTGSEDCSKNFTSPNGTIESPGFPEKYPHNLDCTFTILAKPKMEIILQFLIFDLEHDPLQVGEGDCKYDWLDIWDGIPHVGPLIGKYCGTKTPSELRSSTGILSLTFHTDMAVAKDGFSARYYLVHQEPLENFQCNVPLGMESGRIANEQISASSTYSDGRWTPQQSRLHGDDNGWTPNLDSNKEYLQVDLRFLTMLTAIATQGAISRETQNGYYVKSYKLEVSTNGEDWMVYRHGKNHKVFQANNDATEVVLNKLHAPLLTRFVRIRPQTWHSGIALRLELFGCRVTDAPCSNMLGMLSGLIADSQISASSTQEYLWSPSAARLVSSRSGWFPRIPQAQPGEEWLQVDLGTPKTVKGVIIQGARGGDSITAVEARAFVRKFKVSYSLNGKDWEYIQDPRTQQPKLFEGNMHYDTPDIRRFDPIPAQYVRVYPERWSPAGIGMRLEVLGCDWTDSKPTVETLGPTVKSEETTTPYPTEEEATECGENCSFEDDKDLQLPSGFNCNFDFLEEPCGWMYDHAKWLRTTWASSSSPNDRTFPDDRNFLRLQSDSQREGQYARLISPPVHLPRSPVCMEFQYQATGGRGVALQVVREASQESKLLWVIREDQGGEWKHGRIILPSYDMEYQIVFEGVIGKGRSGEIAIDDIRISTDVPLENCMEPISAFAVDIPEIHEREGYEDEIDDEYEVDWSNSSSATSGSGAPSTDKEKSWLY

T2: NRP2/FLT4(VEGFR3) (Homo sapiens, UniProt O60462)
T2 construct: The complete extracellular domain and transmembrane helices of NRP2a (version 2), NRP2b (version 5); expressed in transfected cells; host or cells: Expi293, transient co-transfection
T2 sequence (O60462 23-859 isoform O60462-3 limits assumed): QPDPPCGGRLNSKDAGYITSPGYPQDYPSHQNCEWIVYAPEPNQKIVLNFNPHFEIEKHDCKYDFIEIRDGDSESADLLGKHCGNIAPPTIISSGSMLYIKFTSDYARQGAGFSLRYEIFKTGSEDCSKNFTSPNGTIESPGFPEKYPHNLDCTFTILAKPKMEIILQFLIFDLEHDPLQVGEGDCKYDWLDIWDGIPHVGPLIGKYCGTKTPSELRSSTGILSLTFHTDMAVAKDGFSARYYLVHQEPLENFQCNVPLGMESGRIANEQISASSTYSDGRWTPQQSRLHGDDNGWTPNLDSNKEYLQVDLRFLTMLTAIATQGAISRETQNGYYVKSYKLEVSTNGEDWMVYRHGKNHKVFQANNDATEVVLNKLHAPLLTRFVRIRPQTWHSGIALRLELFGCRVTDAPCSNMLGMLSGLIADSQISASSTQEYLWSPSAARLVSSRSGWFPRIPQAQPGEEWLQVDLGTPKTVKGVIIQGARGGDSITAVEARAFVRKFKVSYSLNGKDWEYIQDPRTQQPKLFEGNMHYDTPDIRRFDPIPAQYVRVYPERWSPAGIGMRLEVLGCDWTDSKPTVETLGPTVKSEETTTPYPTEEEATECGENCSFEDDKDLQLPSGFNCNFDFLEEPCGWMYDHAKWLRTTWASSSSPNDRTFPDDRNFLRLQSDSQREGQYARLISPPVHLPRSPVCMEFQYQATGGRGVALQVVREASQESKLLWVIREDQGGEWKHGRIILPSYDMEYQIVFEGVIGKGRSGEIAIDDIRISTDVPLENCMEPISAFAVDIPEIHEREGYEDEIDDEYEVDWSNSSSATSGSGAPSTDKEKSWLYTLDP

B1: aNRP2-14v9: humanized, affinity matured anti-NRP2 antibody, target domain a2; VH SEQ ID NO: 53, VL SEQ ID NO: 54 (antibody, V domains shown)
VH: QLQLVESGGGVVQPGRSLRLSCTVSGFSLTSYGVHWVRQAPGKGLEWVGLIWSGGSTDYSPAFISRFTISEDNSKSTVYLQMNSLRAEDTAVYFCARNSYSSGYYAMDYWGQGTTVTVSS
VL: DIQLTQSPSFLSASVGDRVTITCKASQNVGHAVAWYQQKPGKAPKLLIYSASNRYTGVPSRFSGSGSGTEFTLTISSLQPEDFATYYCQQYSRYPPYTFGGGTKVEIK
modifications: Variable heavy chain region; Light chain variable region
B2: aNRP2-28v2/4: mouse surrogate VEGF blocking antibody recognizing mouse NRP2, functional surrogate for aNRP2-10v10; CDRs SEQ ID NOs: 63-68 (antibody, V domains shown)
VH: QSVKESEGGLFKPTDTLTLTCTVSGFSLSTYSISWVRQAPGNGLEWIGIIGDAGGIIYATWAKSRSTITRSTALNTVTLKMTGLTAADTATYFCARDGTAFDIWGPGTLVTVSS
VL: AYDMTQTPASVEVVVGGTVTIKCQASQSIYSKLGWYQQKPGQPPKLLIYRASTLASGVSSRFKGSGSGTEYTLTISGVQCDDAATYYCQQDYSYINVDNIFGGGTEVVVK

How the values were obtained:
MDA-MB-231 cells = conditions: mouse, in vivo
Protocol: The dosing regimen was initiated when the mean tumor volume of all study animals reached 50-100 mm^3.
Treatment Regimen. Twenty (20) NSG mice (Jackson Laboratory, female, 5-6 wks old) were used in this study. The animals were assigned to two study groups of 10 mice randomly. The MDA-MB-231 cell line was prepared for injection as described in the Materials and Methods.
1.25×10^6 cancer cells in PBS with 20% matrigel were injected orthotopically into the mammary fat pad. The day on which the tumor was implanted is designated as Day 0.

NRP2/PLXNA1 = assay: Split-luciferase receptor dimerization assay, NRP2/PLXNA1 with SEMA3F; format: cell-based, human; conditions: antibody 100 nM; ligand induced dimerization
Protocol: (§1) To further extend the assessment of the biological activity of the anti-NRP2 antibodies, their activity was assessed in a receptor dimerization assay. In brief, vectors encoding a split luciferase pBiT1.1 and pBiT2.1 were obtained from Promega corporation (Madison, Wisconsin). The complete extracellular domain and transmembrane helices of NRP2a (version 2), NRP2b (version 5) (See table N1), FLT4 (VEGFR3), KDR (VEGFR2), and plexin A1 (PLXNA1) were cloned into the vectors and screened for optimal orientation, receptor density, and ligand induced dimerization, following established methods. Expi293 cells (Fisher) were transfected at 1 million cells/mL ˜20 hours prior to the assay with NRP2 and a co-receptor at equal mass amounts. Cells were counted, and 100,000 live cells were plated in a well of a white luminometer plate in Live Cell Imaging Solution (Fisher). Nano-Glo assay substrate (Promega) was added, and the plate was read on a Glomax 96 luminometer at room temperature to establish baseline luminescence. Antibodies were added to the well at 100 nM and the plate was again read to establish a new baseline and monitor the effects of the antibodies on spontaneous receptor dimerization. Depending on the receptor pair, typically 200 nM SEMA3F-p95 (aTyr Pharma), 2 nM VEGF-C(R&D Systems, Minnesota), or 2 nM VEGF165 (R&D Systems, Minnesota) were then added and the plate was again read to measure dimerization of receptors. Normalized responses for each individual well were calculated to the time point prior to addition of ligand, then normalized to no-antibody/no-ligand (baseline signal). Replicates were then processed to give average response and standard deviation. Results are summarized in Table E3 below, and shown graphically in FIGS. 3-10.

Human NRP2 (aa23-855) = biological target: T1, Human NRP2 (aa23-855); assay: SPR binding affinity of anti-NRP2 antibodies to human NRP2 antigen; conditions: KD = kd/ka, Langmuir (1:1) model
Protocol: Anti-NRP2 antibody binding and affinity measurements. […] SPR experiments were conducted on a Bio-Rad ProteOn XPR36 Protein Interaction Array instrument. Biotinylated anti-human antibody (ThermoFisher Cat #7103302100) was immobilized on ProteOn NLC sensor chips. Anti-NRP2 antibodies were subsequently flowed over and captured by the anti-human antibody. Human NRP2 antigen protein was flowed over the captured antibody at varying concentrations (150, 50, 16.67, 5.56, 1.85 nM). The sensor chip surface was regenerated between each analyte run to remove anti-NRP2 antibodies and NRP2 protein. Data was double referenced against a surface with no anti-NRP2 antibody captured (immobilized anti-human antibody only) and a buffer only blank. Affinity constants were derived by globally fitting sensograms to a Langmuir (1:1) interaction model in the ProteOn manager software. For each anti-NRP2 antibody, data from the multiple NRP2 concentrations was fit as a single data set with dissociation rate constant (kd), association rate constant (ka) and Rmax values as global parameters. The reported binding affinity is the equilibrium dissociation constant (KD) calculated from kd/ka. • Running buffer: 50 mM HEPES, 300 mM NaCl, 5 mM CaCl2), 0.005% Tween-20, pH 7.4 • Immobilized antibody: CaptureSelect Human Fab-kappa Kinetics Biotin Conjugate, ThermoFisher Cat #7103302100 • Antigen: Human NRP2 (aa23-855) with C-terminal Avi-, Myc- and His-tags • Regeneration buffer: 10 mM glycine pH 2.0

NRP2/FLT4(VEGFR3) = biological target: T2, NRP2/FLT4(VEGFR3); assay: Split-luciferase receptor dimerization assay, NRP2/FLT4 with VEGF-C; format: cell-based; conditions: antibody 100 nM; ligand induced dimerization
Protocol: as §1

[1] = system: neo-lymphangiogenesis of the cornea; assay: Corneal alkali-burn injury model of neovascularization (LYVE-1 staining); format: in vivo, mouse; conditions: IP on Day 0, 3, 7 and 10; Day 14; compared to IgG control; p=0.07
Protocol: Study Design & Treatment Regimen. The study consisted of 40 female C57BL/6 mice separated into four groups. Prior to study, animals were randomized into four groups, 10 mice per group. On Day 0, neovascularization (NV) of the cornea was induced from alkali-burn injury in the eyes of animals under anesthesia. Animals were treated intraperitoneally with control IgG (Group 1), aNRP2-28 (Group 2) and Bevacizumab (Group 3) on post-injury Day 0, 3, 7 and 10. During the in-life phase, animals were monitored with daily clinical observations and weekly body weights. Additionally, ocular assessments of injured eyes were scored and photos taken on post-injury Day 7 and Day 14. All animals were euthanized on Day 14. Injured eyes from all animals were removed and dissected. Whole-mounted corneas were fixed, stained with LYVE-1, and analyzed immunohistochemically to examine the efficacy of Test Articles.

4T1 tumors = assay: 4T1 model of spontaneous metastasis in Balb/c mice; format: in vivo
Protocol: The test antibody dosing regimen was initiated one day before cell injection and animal weights and tumor measurements were recorded three times a week until study termination.
Mouse 4T1 cell line was purchased from ATCC. […] 50,000 cancer cells in PBS were implanted subcutaneously into the right flank of each mouse.
Treatment Regimen. […] The animals were assigned to 3 study groups of 10 mice randomly, and housed as described in the Materials and Methods. The antibody dosing regimen is shown in Table E5 below; in brief animals received intraperitoneal injections of 10 mg/kg of the control IgG antibody, and aNRP2-28 (as described in the Materials and Methods), administered according to the protocol below (Table E5); starting one day before cancer cell implantation until termination on day 23).

B16-F10 tumors = assay: B16-F10 mouse melanoma in C57BL/6 mice; format: in vivo
Protocol: Animals and Animal husbandry. All mice were ear tagged for identification purpose. Upon arrival, animals were examined to ensure that they were healthy. The animals were housed in autoclaved solid floor polycarbonate cages. Housing and sanitation were performed according to industry standards. All animal handling was performed in a laminar flow hood located in a clean room. In all experiments, euthanasia criteria were set for an upper limit on subcutaneous tumor volume (usually >2,000 mm^3) and body weight loss (usually >20% body weight loss for an individual during the study). Animal work was performed at either Comparative Biosciences, Inc., 786 Lucerne Dr., Sunnyvale, CA 94085 or at aTyr Pharma, 3545 John Hopkins Court, Suite 250, San Diego, CA 92121. The test antibody dosing regimen was initiated once the mean tumor volume reached 50-100 mm^3. Tumor measurements were recorded two times a week until study termination, as described below.
Tumor monitoring. Once palpable, sub-cutaneous tumors were measured three times a week with a digital caliper. Tumor volumes were calculated using formula: Tumor Volume=length×width×width×1/2
Statistical analysis. Data are expressed as mean±SEM o. In experiments in which animals were euthanized due to tumor burden or body weight loss, the terminal tumor volume was carried forward for statistical analysis. […] Significance of difference over time was tested with a 2-way repeated measures ANOVA followed by Dunnett's post-hoc test. Group comparisons were conducted using 1-way ANOVA (parametric or Kruskal Wallis, as noted in the figure legends). A p value <0.05 was considered significant.
Cell culture and implantation. Mouse B16-F10 cell line was purchased from ATCC.
Treatment Regimen. Thirty (30) C57BL/6 mice (Charles River, female, 6-8 wks old) were used in this study. The animals were assigned to 3 study groups of 10 mice randomly, and housed as described in the Materials and Methods. The antibody dosing regimen is shown in Table E4 below; in brief animals received intraperitoneal injections of the control IgG antibody, positive control antibody (Bevacizumab), and anti-NRP2 antibody (as described in the Materials and Methods), administered according to the protocol below (Table E4).

Molecule	body weight (MDA-MB-231 cells)	effect on NRP2-plexin heterodimerization (in words) (NRP2/PLXNA1)	Kd (Human NRP2 (aa23-855)) [nM]	effect on NRP2-VEGFR3 (FLT4) heterodimerization (in words) (NRP2/FLT4(VEGFR3))	neo-lymphangiogenesis, % Lyve-1+ area of cornea [1]	toxicity from animal body weight measurements and observations (4T1 tumors; 10 mg/kg IP)	metastatic nodules in the lung at termination (4T1 tumors; 10 mg/kg IP days -1 to 23, compared to IgG control, p≤0.05)	terminal tumor weights (B16-F10 tumors; 25 mg/kg IP BIW)	toxicity from animal body weight measurements and observations (B16-F10 tumors; 25 mg/kg IP BIW)	tumor growth (tumor volume) (B16-F10 tumors; 25 mg/kg IP BIW, compared to IgG control group, p<0.05 on Day 14, 16 and 19)	anti-tumor activity relative to Bevacizumab (positive control) (B16-F10 tumors; aNRP2-28 25 mg/kg vs Bevacizumab 5 mg/kg, IP BIW)
N.N.[Cl][Pt][Cl] [cisplatin, Cisplatin]	significant loss in body weight										
B1		extremely potent inhibition	0.15	no significant impact							
B2			0.0599		inhibits neo-lymphangiogenesis; also recorded: can inhibit neolymphangiogenesis	no evidence of toxicity	reduction in metastatic nodules in the lung	lowest terminal tumor weights	no evidence of toxicity	tumor growth inhibition	more potent anti-tumor activity
